# Experimental data published in patent publication US20220282268A1.
# Biological target: Hybrid Rubisco of A. thaliana S2Cr lines (1a3b mutant complemented with S2Cr) (Arabidopsis thaliana; Chlamydomonas reinhardtii) (UniProt O03042)
# Experiment: cell-based or functional assay
substance,measurement,value
EPYC1-dGFP (truncated mature EPYC1 expressed from two cassettes as EPYC1::eGFP and EPYC1::tGFP),share of Rubisco in the pelleted condensate that contained C. reinhardtii SSU (Coomassie-stained gel),82%
same,"share of Rubisco localized to the condensate (immunogold TEM, polyclonal Rubisco antibody)",54%
same,"share of the C. reinhardtii SSU localized to the condensate (immunogold TEM, anti-CrRbcS2)",81%
